Consider two molecules from patent US20110144312A1 (Kyowa Kirin, published 2011).

In assay [1] the target is T1, Ac-GNFTFTHKKV-NH2 (human).
T1 peptide: Ac-GNFTFTHKKV-NH2
The assay is described as follows: dot blot on PVDF or nitrocellulose membrane. The method, then: (§1) Methods to detect antibody binding to peptides derived from the human IL-10Rα sequence: Multiple methods were employed to detect binding of anti-human IL-10Rα antibodies to peptides derived from the extracellular domain of human IL-10Rα that have been reported by Reineke, et al. (Reineke, et al., Protein Sci 7:951 (1998)) to be included in the IL-10 binding site of the receptor. The following amide synthesized peptides were tested: Ac-[…]-NH2, Ac-[…]-NH2, Ac-[…]-NH2, Ac-[…]-NH2, Ac-[…]-NH2 (SEQ ID NO. 81-85). In addition, the following biotinylated peptides were tested: Biotin-[…]-NH2, Biotin-[…]-NH2 (SEQ ID NO. 86-87). The amide peptides were synthesized by A&A Labs, LLC (San Diego, Calif.) and the biotinylated peptides were synthesized by GenScript (Piscataway, N.J.) both at >95% purity and reconstituted at 20 mg/ml in DMSO. In one assay design peptides were spotted at 5 μg/spot in PBS onto PVDF membranes or nitrocellulose membranes that had been prepared according to the manufacturer's instructions. The membranes were incubated with anti-IL-10Rα antibodies using standard Western blotting methods (e.g. Towbin, et al., Proc Natl Acad Sci 76:4350 (1979)). Native human IL-10Ra:hFc and heat denatured human IL-10Ra:hFc were also spotted at 1 μg/spot on the membranes as controls. Negative controls included an irrelevant peptide and isotype controls. […] None of the antibodies bound to the spotted denatured protein or to any of the peptides derived from the human IL-10Ra extracellular domain or the irrelevant peptide.

Assay [2] has as its target T2, Ac-SVASRSNKGM-NH2 (human).
T2 peptide: Ac-SVASRSNKGM-NH2
The experiment in a line: dot blot on PVDF or nitrocellulose membrane. The method, then:
as §1

Assay [3] has as its target T3, Ac-YHSNGYRARVRA-NH2 (human).
T3 peptide: Ac-YHSNGYRARVRA-NH2
The experiment in a line: dot blot on PVDF or nitrocellulose membrane. On the procedure: as §1

Assay [4] addresses T4, Ac-TVTNTRFSVD-NH2 (human).
T4 peptide: Ac-TVTNTRFSVD-NH2
The experiment in a line: dot blot on PVDF or nitrocellulose membrane. The method, then: as §1

For assay [5], the target named is T5, Ac-SIFSHFREYE-NH2 (human).
T5 peptide: Ac-SIFSHFREYE-NH2
The assay is described as follows: dot blot on PVDF or nitrocellulose membrane. On the procedure: as §1

Assay [6] deals with T6, cynomolgus macaque IL-10Rα extracellular domain fused to the Fc portion of human IgG1 (cynomolgus macaque).
T6 construct: The entry includes the signal peptide; also called cynomolgus IL-10Rα:hFc; cyIL-10Rα
The assay is described as follows: ELISA, coated cynomolgus IL-10Rα:hFc. The text has this:
Titration of anti-IL-10Rα antibodies binding to coated chimp or cynomolgus IL-10Rα:hFc. Binding was detected with anti-human kappa-HRP, anti-mouse IgG-HRP, or anti-rat IgG-HRP. Different anti-rat-IgG HRP and anti-mouse IgG antibodies were used to generate the data in panels A and B. The nature of these secondary antibodies can affect the results and lead to different maximum binding (BMAX). The BMAX from these studies are described in Table 5.
IL-10Rα Specific Antibody Detection ELISA: Antibody titers, specificity, and production by hybridomas were determined by ELISA. In brief, 96 well flat bottom Maxisorb plates were coated with 50 μl of hIL-10Rα (R&D Systems, Minneapolis, Minn.) at 1 μg/ml in carbonate buffer (pH 9.4) overnight at 4° C. or at 37° C. for 1 hour. After washing three times with PBS/0.05% Tween 20, plates were blocked with Superblock blocking buffer in TBS (Pierce) at room temperature for 30 minutes. The serum, supernatant, or purified antibody was diluted in blocking buffer, added to the wells, and the plates were incubated for 1 hour at room temperature. The plates were washed 3 times with PBS/0.05% Tween 20 and peroxidase-conjugated goat anti-human IgG (Fcγ specific), anti-rat IgG, or anti-mouse IgG detection antibodies (Jackson Immunoresearch) were added at a dilution of 1:5000. Multiple lots of anti-rat and anti-mouse IgG antibodies were used in different assays. […] Following a 1 hour incubation at room temperature, the plates were washed and the TMB (Sigma) substrate was added and incubated at room temperature for 5 to 10 minutes. The reaction was stopped with H₂SO₄ (LabChem) and the optical density was measured at 450 nm by a microplate reader. A second ELISA protocol using soluble human, chimp and cynomolgus IL-10Rα:hFc recombinant proteins as the coating antigens was also employed. In this assay, binding of specific human IgG were detected with a peroxidase labeled sheep anti-human kappa antibody (The Binding Site, Birmingham, UK).

In assay [7] the target is T7, human IL-10Rα extracellular domain fused to the Fc portion of human IgG1 (human).
T7 construct: also called hIL-10Rα:hFc; human IL-10Rα:hFc
The assay is described as follows: ELISA, coated human IL-10Rα:hFc. An excerpt:
FIGS. 2A-2B show relative binding affinity of anti-human IL-10R antibodies for human IL-10Rα. A) Titration of anti-IL-10Rα antibodies binding to coated human IL-10Rα:hFc. Binding was detected with anti-human kappa-HRP, anti-mouse IgG-HRP, or anti-rat IgG-HRP. […] RPMI-8226 cells were labeled with anti-human IL-10Rα antibodies at various concentrations and detected with anti-human IgG-PE. The commercial rat anti-human IL-10Rα antibody 3F9 was detected with anti-rat IgG-PE. The geometric mean fluorescence intensity (geo mean) data are shown.
IL-10Rα Specific Antibody Detection ELISA: Antibody titers, specificity, and production by hybridomas were determined by ELISA. In brief, 96 well flat bottom Maxisorb plates were coated with 50 μl of hIL-10Rα (R&D Systems, Minneapolis, Minn.) at 1 μg/ml in carbonate buffer (pH 9.4) overnight at 4° C. or at 37° C. for 1 hour. After washing three times with PBS/0.05% Tween 20, plates were blocked with Superblock blocking buffer in TBS (Pierce) at room temperature for 30 minutes. […] The reaction was stopped with H₂SO₄ (LabChem) and the optical density was measured at 450 nm by a microplate reader. […] In this assay, binding of specific human IgG were detected with a peroxidase labeled sheep anti-human kappa antibody (The Binding Site, Birmingham, UK).

The target in assay [8] is T8, cynomolgus macaque IL-10Rα on PBMC (cynomolgus macaque, UniProt Q13651 22-578 (human entry)).
T8 construct: Full-length entry cloned from cynomolgus T cells; endogenous on primary PBMC in the assays; also called IL-10Rα on the surface of cynomolgus lymphocytes and monocytes
T8 chain: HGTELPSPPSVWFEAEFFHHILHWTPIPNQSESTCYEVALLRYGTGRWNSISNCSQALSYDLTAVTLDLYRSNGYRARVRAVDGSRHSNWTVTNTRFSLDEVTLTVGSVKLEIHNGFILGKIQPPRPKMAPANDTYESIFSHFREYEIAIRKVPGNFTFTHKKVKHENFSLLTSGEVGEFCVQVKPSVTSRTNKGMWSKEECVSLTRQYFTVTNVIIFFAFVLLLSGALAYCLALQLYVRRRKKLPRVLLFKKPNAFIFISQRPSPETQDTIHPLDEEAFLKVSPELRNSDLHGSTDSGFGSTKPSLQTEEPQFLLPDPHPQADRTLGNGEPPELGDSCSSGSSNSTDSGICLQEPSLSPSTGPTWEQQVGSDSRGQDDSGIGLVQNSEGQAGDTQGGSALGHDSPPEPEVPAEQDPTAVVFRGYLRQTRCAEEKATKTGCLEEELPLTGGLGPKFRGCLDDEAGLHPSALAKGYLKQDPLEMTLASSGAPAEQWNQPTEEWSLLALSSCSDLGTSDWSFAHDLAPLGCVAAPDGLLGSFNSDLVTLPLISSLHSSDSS
The experiment in a line: flow cytometry on cynomolgus macaque PBMC, lymphocyte gate; competitor: recombinant human IL-10Rα [C].

Substitutions are numbered along the chain they refer to.

B1: 136C5 (antibody, V domains shown)
VH: EVQLVESGGGLVQPGGSLRLSCAASGFTFSSYSMNWVRQAPGKGLEWVSYISTGSSTIYYADSVKGRFTISRDNAKNSLYLQMNSLRDEDTAVYYCARENYYGSGSYEDYFDYWGQGTLVTVSS
VL: EIVLTQSPATLSLSPGERATLSCRASQSVSSYLAWYQQKPGQAPRLLIYDASNRATGIPARFSGSGSGTDFTLTISSLEPEDFAVYYCQQRSNWPIFTFGPGTKVDIK
notes: Hybridoma antibody, human IgG1, kappa light chain; also called human anti-human IL-10Rα monoclonal antibody 136C5; hybridoma deposit PTA-9131
As to B1, the binding result was “no binding (tested: 5 µg/spot)” in assay [1]; “no binding (tested: 5 µg/spot)” in assay [2]; “no binding (tested: 5 µg/spot)” in assay [3]; “no binding (tested: 5 µg/spot)” in assay [4]; “no binding (tested: 5 µg/spot)” in assay [5]; “binds” in assay [8]. In assay [6], this molecule yielded a BMAX of 1.64 OD. Further, in assay [7], the “fold higher relative binding affinity than 37607” value was roughly 3 fold.

B2: 136C8 (antibody, V domains shown)
VH: B1 VH with G54R
VL: B1 VL
notes: Hybridoma antibody, human IgG2, kappa light chain; also called human anti-human IL-10Rα monoclonal antibody 136C8; hybridoma deposit PTA-9132
With B2, the binding result in assay [1] is listed as “no binding (tested: 5 µg/spot)”; in assay [2], “no binding (tested: 5 µg/spot)”; in assay [3], “no binding (tested: 5 µg/spot)”; in assay [4], “no binding (tested: 5 µg/spot)”; in assay [5], “no binding (tested: 5 µg/spot)”; in assay [8], “binds”. The molecule also registered a BMAX in assay [6] of 1.66 OD. In addition, the “fold higher relative binding affinity than 37607” value in assay [7] was roughly 3 fold.
